Here are results for two variants from IntAct's records for PubMed 23386615.

The labels stand for the following.
B1: Peroxiredoxin-1 (Homo sapiens), Q06830 (parent)
chain: MSSGNAKIGHPAPNFKATAVMPDGQFKDISLSDYKGKYVVFFFYPLDFTFVCPTEIIAFSDRAEEFKKLNCQVIGASVDSHFCHLAWVNTPKKQGGLGPMNIPLVSDPKRTIAQDYGVLKADEGISFRGLFIIDDKGILRQITVNDLPVGRSVDETLRLVQAFQFTDKHGEVCPAGWKPGSDTIKPDVQKSKEYFSKQK
partner: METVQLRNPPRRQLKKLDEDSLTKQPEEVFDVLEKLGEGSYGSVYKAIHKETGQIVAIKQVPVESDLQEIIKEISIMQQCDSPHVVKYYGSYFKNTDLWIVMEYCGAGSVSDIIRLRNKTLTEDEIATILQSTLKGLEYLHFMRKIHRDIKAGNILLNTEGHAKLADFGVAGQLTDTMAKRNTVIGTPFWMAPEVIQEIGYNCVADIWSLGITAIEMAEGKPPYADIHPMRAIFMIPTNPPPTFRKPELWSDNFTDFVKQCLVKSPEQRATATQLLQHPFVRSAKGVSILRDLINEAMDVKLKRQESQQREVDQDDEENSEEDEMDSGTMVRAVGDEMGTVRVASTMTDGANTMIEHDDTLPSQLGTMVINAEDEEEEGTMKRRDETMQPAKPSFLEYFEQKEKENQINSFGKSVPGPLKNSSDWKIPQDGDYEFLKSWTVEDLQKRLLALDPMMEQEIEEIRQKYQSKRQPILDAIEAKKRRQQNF
B2: Serine/threonine-protein kinase 4 (Homo sapiens), Q13043 (parent)
chain: B1 partner
partner: B1 chain

The first experiment covers variants of B1. To be noted: with stk4_human STK4, Q13043.
Consider MSSGNAKIGHPAPNFKATAVMPDGQFKDISLSDYKGKYVVFFFYPLDFTFVSPTEIIAFSDRAEEFKKLNCQVIGASVDSHFCHLAWVNTPKKQGGLGPMNIPLVSDPKRTIAQDYGVLKADEGISFRGLFIIDDKGILRQITVNDLPVGRSVDETLRLVQAFQFTDKHGEVSPAGWKPGSDTIKPDVQKSKEYFSKQK, for which the “effect of a mutation on the interaction” value is given as “decreasing interaction”.

In another experiment the parent is B2. The conditions noted are these: with prdx1_human PRDX1, Q06830.
As to METVQLRNPPRRQLKKLDEDSLTKQPEEVFDVLEKLGEGSYGSVYKAIHKETGQIVAIRQVPVESDLQEIIKEISIMQQCDSPHVVKYYGSYFKNTDLWIVMEYCGAGSVSDIIRLRNKTLTEDEIATILQSTLKGLEYLHFMRKIHRDIKAGNILLNTEGHAKLADFGVAGQLTDTMAKRNTVIGTPFWMAPEVIQEIGYNCVADIWSLGITAIEMAEGKPPYADIHPMRAIFMIPTNPPPTFRKPELWSDNFTDFVKQCLVKSPEQRATATQLLQHPFVRSAKGVSILRDLINEAMDVKLKRQESQQREVDQDDEENSEEDEMDSGTMVRAVGDEMGTVRVASTMTDGANTMIEHDDTLPSQLGTMVINAEDEEEEGTMKRRDETMQPAKPSFLEYFEQKEKENQINSFGKSVPGPLKNSSDWKIPQDGDYEFLKSWTVEDLQKRLLALDPMMEQEIEEIRQKYQSKRQPILDAIEAKKRRQQNF [K59R], the “effect of a mutation on the interaction” value is listed as “increasing interaction”.
